# Data taken from US20260234269A1 (TRUEBINDING, published 2026).
# T1: hGal3 peptide 2 (human)
# T1 peptide: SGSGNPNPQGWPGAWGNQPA
# T2: hGal3 peptide 4 (human)
# T2 peptide: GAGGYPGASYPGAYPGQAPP
# T3: hGal3 peptide 1 (human)
# T3 construct: also called peptide 1 of Gal3
# T3 peptide: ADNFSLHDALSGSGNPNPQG
# T4: hGal3 peptide 7 (human)
# T4 peptide: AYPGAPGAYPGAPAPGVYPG
# B1: mouse TIM-3 Fc protein (R&D systems) (Fc fusion, UniProt Q8VIM0 20-191, looked up)
# chain: RSLENAYVFEVGKNAYLPCSYTLSTPGALVPMCWGKGFCPWSQCTNELLRTDERNVTYQKSSRYQLKGDLNKGDVSLIIKNVTLDDHGTYCCRIQFPGLMNDKKLELKLDIKAAKVTPAQTAHGDSTTASPRTLTTERNGSETQTLVTLHNNNGTKISTWADEIKDSGETIR
# notes: also called mTIM-3 Fc; mTIM-3-Fc; not shown: Fc, detected with anti-human Fc / anti-human IgG
# B2: mIMT001 (IMT001) (antibody, V domains shown)
# VH: QIQLVQSGPELKKPGETVKISCKASGYTFTNYGMNWVKQAPGKGLKWMGWINTNTGEPTYVEEFKGRFAFSLETSASTAYLQINNLKNEDTATYFCAPYDNFFAYWGQGTLVTVSA
# VL: DIVITQDELSNPVTSGESVSISCRSSKSLLYKDGKTYLNWFLQRPGQSPQLLIYLMSTHASGVSDRFSGSGSGTDFTLEISRVKAEDVGVYYCQQLVDYPLTFGAGTKLELK
# notes: treated here as one molecule; also called mAb IMT001; Gal3 antibody clone IMT001
# Legend:
# [1] = molecular target: T5, mouse Gal3 protein (BioLegend) (mouse, UniProt P16110 2-264, limits assumed); experiment: ELISA, mGal3 coated, mouse TIM-3 Fc
# T5 construct: also called mGal3
# [2] = molecular target: T6, Flag-tagged human Gal3 protein on A20 cells (A20 Gal3 cells) (human, UniProt P17931 2-250); experiment: flow cytometry, A20 Gal3 cells, anti-hFc APC
# T6 construct: also called A20 cells overexpressing human Gal3; not shown: Flag tag
# [3] = molecular target: T1, hGal3 peptide 2; experiment: dot blot, 20 ug peptide per dot, anti-mIgG HRP
# [4] = molecular target: T2, hGal3 peptide 4; experiment: dot blot, 20 ug peptide per dot, anti-mIgG HRP
# [5] = molecular target: T3, hGal3 peptide 1; experiment: dot blot, 20 ug peptide per dot, anti-mIgG HRP
# [6] = molecular target: T4, hGal3 peptide 7; experiment: dot blot, 20 ug peptide per dot, anti-mIgG HRP
# [7] = molecular target: T7, Human Galectin-3 protein (Acro Biosystems, GA3-H5129) (human, UniProt P17931 2-250); experiment: ELISA, hGal3 coated, antibody 3 ug/mL, competitor hTIM3
# T7 construct: Bought protein; also called hGal3; Gal3; not shown: linker-spaced 6-histidine tag
# [8] = molecular target: T7, Human Galectin-3 protein (Acro …); experiment: SPR Biacore T200, antibody captured, Galectin-3 analyte
# [9] = molecular target: T8, mouse Gal3 on mouse cells (B16F10 tumor cells, RAW264.7 macrophages) (mouse, UniProt P16110 2-264); experiment: flow cytometry, RAW cells, IMT001 10 ug/ml
# T8 construct: whole, on cells; also called mGal3; Gal3 on RAW cells
# T8 sequence (P16110 2-264, one chain of several): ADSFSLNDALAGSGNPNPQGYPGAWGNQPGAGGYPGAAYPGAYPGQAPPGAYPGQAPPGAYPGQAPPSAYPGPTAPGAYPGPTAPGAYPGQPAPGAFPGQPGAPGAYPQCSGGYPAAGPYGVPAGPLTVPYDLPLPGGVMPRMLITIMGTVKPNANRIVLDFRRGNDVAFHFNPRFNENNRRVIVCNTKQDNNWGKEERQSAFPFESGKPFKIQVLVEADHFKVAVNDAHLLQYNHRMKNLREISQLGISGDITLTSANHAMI
# T7 sequence (P17931 2-250): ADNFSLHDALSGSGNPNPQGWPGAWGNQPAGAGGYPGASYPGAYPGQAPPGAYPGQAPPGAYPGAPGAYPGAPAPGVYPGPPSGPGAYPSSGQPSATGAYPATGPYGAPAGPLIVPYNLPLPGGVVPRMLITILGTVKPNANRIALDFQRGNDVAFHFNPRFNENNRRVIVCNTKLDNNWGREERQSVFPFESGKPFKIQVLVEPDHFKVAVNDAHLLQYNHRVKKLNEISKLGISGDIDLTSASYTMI
# T5 sequence (P16110 2-264 limits assumed): as the sequence (P16110 2-264, one chain of several) above
Binder,binding result [1],binding result [2],binding result [3],binding result [4],binding result [5],binding result [6],GAL3-TIM3 Blocking @ 3 ug/mL [7],Kd [8],"MFI, fold over isotype control antibody [9]"
B1,binds,binds,,,,,,,
B2,,,no binding (tested: 1 ug/ml),no binding (tested: 1 ug/ml),no binding (tested: 1 ug/ml),no binding (tested: 1 ug/ml),80%,1.67 nM,> 10 fold
